Positions count from the first letter of the chain named. Numbers in names are those of the source.
T1: PUF4 RNA-binding domain (Saccharomyces cerevisiae, UniProt P25339 537-888)
T1 sequence: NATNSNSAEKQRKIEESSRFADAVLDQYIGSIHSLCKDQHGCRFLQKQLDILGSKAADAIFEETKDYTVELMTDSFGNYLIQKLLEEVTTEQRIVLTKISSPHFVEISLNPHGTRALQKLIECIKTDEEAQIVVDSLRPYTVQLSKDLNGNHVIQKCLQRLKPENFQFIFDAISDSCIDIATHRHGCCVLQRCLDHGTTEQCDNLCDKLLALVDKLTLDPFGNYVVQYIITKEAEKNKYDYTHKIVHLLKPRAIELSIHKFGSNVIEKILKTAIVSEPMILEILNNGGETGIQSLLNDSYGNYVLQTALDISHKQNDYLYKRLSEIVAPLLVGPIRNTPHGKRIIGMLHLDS

B1: Ie_S1_P5E.1_K5.1_C5.1_H5.1_[+2TT]_A5.1_F5.1_T5.1 (ssRNA)
RNA: UCUCUUUGUUUAUUAUUAUCUCUU
B2: Ie_S1_P5E.1_K5.1_C5.1_H5.1_[+2CTC]_A5.1_F5.1_T5.1 (ssRNA)
RNA: UCUCUUUGCUCUAUUAUUAUCUCUU
B3: Ie_S1_P5E.1_K5.1_C5.1_H5.1_[+3CCT]_A5.1_F5.1_T5.1 (ssRNA)
RNA: UCUCUUUGUCCUAUUAUUAUCUCUU
B4: Ie_S1_P5E.1_K5.1_C5.1_H5.1_[+3TCT]_A5.1_F5.1_T5.1 (ssRNA)
RNA: UCUCUUUGUUCUAUUAUUAUCUCUU
B5: Ie_S1_P5E.1_K5.1_C5.1_H5.1_[+3CTT]_A5.1_F5.1_T5.1 (ssRNA)
RNA: UCUCUUUGUCUUAUUAUUAUCUCUU
B6: Ie_S1_P5E.1_K5.1_C5.1_H5.1_[+2CTT]_A5.1_F5.1_T5.1 (ssRNA)
RNA: UCUCUUUGCUUUAUUAUUAUCUCUU
B7: Ie_S1_P5E.1_K5.1_C5.1_H5.1_[+3TTT]_A5.1_F5.1_T5.1 (ssRNA)
RNA: UCUCUUUGUUUUAUUAUUAUCUCUU
B8: Ib_S2_P3E.1_K3.1_C3.1_H3.1_[T1A]_A3.1_F3.1_[A8G]_T3.1 (ssRNA)
RNA: UUUGAUUAAUAUGAUAUCGUUCUUUCUAGUAUAUGUUCUUUCUCGAUAUCAUAUUAAUCUUU
B9: Ie_S1_P5E.1_K5.1_C5.1_H5.1_[+2CTCT]_A5.1_F5.1_T5.1 (ssRNA)
RNA: UCUCUUUGCUCUUAUUAUUAUCUCUU
B10: Ie_S1_P5E.1_K5.1_C5.1_H5.1_[+2TCTC]_A5.1_F5.1_T5.1 (ssRNA)
RNA: UCUCUUUGUCUCUAUUAUUAUCUCUU
B11: Ie_S1_P5E.1_K5.1_C5.1_H5.1_[+2TCTCT]_A5.1_F5.1_T5.1 (ssRNA)
RNA: UCUCUUUGUCUCUUAUUAUUAUCUCUU
B12: Ie_S1_P5E.1_K5.1_C5.1_H5.1_[+3C]_A5.1_F5.1_T5.1 (ssRNA)
RNA: UCUCUUUGUCAUUAUUAUCUCUU
B13: Ie_S1_P5E.1_K5.1_C5.1_H5.1_[+3TC]_A5.1_F5.1_T5.1 (ssRNA)
RNA: UCUCUUUGUUCAUUAUUAUCUCUU
B14: Ie_S1_P5E.1_K5.1_C5.1_H5.1_[+3CCC]_A5.1_F5.1_T5.1 (ssRNA)
RNA: UCUCUUUGUCCCAUUAUUAUCUCUU
B15: Ie_S1_P5E.1_K5.1_C5.1_H5.1_[+3CTC]_A5.1_F5.1_T5.1 (ssRNA)
RNA: UCUCUUUGUCUCAUUAUUAUCUCUU
B16: Ie_S1_P5E.1_K5.1_C5.1_H5.1_[+3TCC]_A5.1_F5.1_T5.1 (ssRNA)
RNA: UCUCUUUGUUCCAUUAUUAUCUCUU
B17: Ie_S1_P5E.1_K5.1_C5.1_H5.1_[+3TTC]_A5.1_F5.1_T5.1 (ssRNA)
RNA: UCUCUUUGUUUCAUUAUUAUCUCUU
B18: Ie_S1_P5E.1_K5.1_C5.1_H5.1_[+3TCTC]_A5.1_F5.1_T5.1 (ssRNA)
RNA: UCUCUUUGUUCUCAUUAUUAUCUCUU
B19: Ib_S2_P3E.1_K3.1_C3.1_H3.1_[T1G]_A3.1_F3.1_[A8T]_T3.1 (ssRNA)
RNA: B8 RNA with A28G, G35U
B20: Ie_S1_P5E.1_K5.1_C5.1_H5.1_[+3CCTC]_A5.1_F5.1_T5.1 (ssRNA)
RNA: UCUCUUUGUCCUCAUUAUUAUCUCUU
B21: Ie_S1_P5E.1_K5.1_C5.1_H5.1_[+3TTCC]_A5.1_F5.1_T5.1 (ssRNA)
RNA: UCUCUUUGUUUCCAUUAUUAUCUCUU
B22: Ie_S1_P5E.1_K5.1_C5.1_H5.1_[+3CCCT]_A5.1_F5.1_T5.1 (ssRNA)
RNA: UCUCUUUGUCCCUAUUAUUAUCUCUU
B23: Ie_S1_P5E.1_K5.1_C5.1_H5.1_[+3CTCTC]_A5.1_F5.1_T5.1 (ssRNA)
RNA: UCUCUUUGUCUCUCAUUAUUAUCUCUU
B24: Ie_S1_P5E.1_K5.1_C5.1_H5.1_[+3TCTCT]_A5.1_F5.1_T5.1 (ssRNA)
RNA: UCUCUUUGUUCUCUAUUAUUAUCUCUU
B25: Ie_S1_P5E.1_K5.1_C5.1_H5.1_[+3CCTCT]_A5.1_F5.1_T5.1 (ssRNA)
RNA: UCUCUUUGUCCUCUAUUAUUAUCUCUU
B26: Ie_S1_P5E.1_K5.1_C5.1_H5.1_[+3TTCCT]_A5.1_F5.1_T5.1 (ssRNA)
RNA: UCUCUUUGUUUCCUAUUAUUAUCUCUU
B27: Ie_S1_P5E.1_K5.1_C5.1_H5.1_[+3CCCTT]_A5.1_F5.1_T5.1 (ssRNA)
RNA: UCUCUUUGUCCCUUAUUAUUAUCUCUU
B28: Ie_S1_P5E.1_K5.1_C5.1_H5.1_[+4CCT]_A5.1_F5.1_T5.1 (ssRNA)
RNA: UCUCUUUGUACCUUUAUUAUCUCUU
B29: Ie_S1_P5E.1_K5.1_C5.1_H5.1_[+4TCC]_A5.1_F5.1_T5.1 (ssRNA)
RNA: UCUCUUUGUAUCCUUAUUAUCUCUU
B30: Ib_S2_P3E.1_K3.1_C3.1_H3.1_[G2C]_A3.1_F3.1_[A8C]_T3.1 (ssRNA)
RNA: B8 RNA with A28U, G29C, G35C
B31: Ie_S1_P5E.1_K5.1_C5.1_H5.1_A5.1_[+5TCT]_F5.1_T5.1 (ssRNA)
RNA: UCUCUUUGUAUUCUUAUUAUCUCUU
B32: Ie_S1_P5E.1_K5.1_C5.1_H5.1_[+4CTT]_A5.1_F5.1_T5.1 (ssRNA)
RNA: UCUCUUUGUACUUUUAUUAUCUCUU
B33: Ie_S1_P5E.1_K5.1_C5.1_H5.1_A5.1_[+6TTT]_F5.1_T5.1 (ssRNA)
RNA: UCUCUUUGUAUUUUUAUUAUCUCUU
B34: Ie_S1_P5E.1_K5.1_C5.1_H5.1_[+4CTCT]_A5.1_F5.1_T5.1 (ssRNA)
RNA: UCUCUUUGUACUCUUUAUUAUCUCUU
B35: Ie_S1_P5E.1_K5.1_C5.1_H5.1_[+4CCTCT]_A5.1_F5.1_T5.1 (ssRNA)
RNA: UCUCUUUGUACCUCUUUAUUAUCUCUU
B36: Ie_S1_P5E.1_K5.1_C5.1_H5.1_[+4TTCCT]_A5.1_F5.1_T5.1 (ssRNA)
RNA: UCUCUUUGUAUUCCUUUAUUAUCUCUU
B37: Ie_S1_P5E.1_K5.1_C5.1_H5.1_[+4CCCTT]_A5.1_F5.1_T5.1 (ssRNA)
RNA: UCUCUUUGUACCCUUUUAUUAUCUCUU
B38: Ie_S1_P5E.1_K5.1_C5.1_H5.1_A5.1_[+5TTC]_F5.1_T5.1 (ssRNA)
RNA: UCUCUUUGUAUUUCUAUUAUCUCUU
B39: Ie_S1_P5E.1_K5.1_C5.1_H5.1_A5.1_[+5CTCTC]_F5.1_T5.1 (ssRNA)
RNA: UCUCUUUGUAUCUCUCUAUUAUCUCUU
B40: Ie_S1_P5E.1_K5.1_C5.1_H5.1_A5.1_[+5TCTCT]_F5.1_T5.1 (ssRNA)
RNA: UCUCUUUGUAUUCUCUUAUUAUCUCUU
B41: Ib_S2_P3E.1_K3.1_C3.1_H3.1_[G2T]_A3.1_F3.1_[A8C]_T3.1 (ssRNA)
RNA: B8 RNA with A28U, G29U, G35C
B42: Ie_S1_P5E.1_K5.1_C5.1_H5.1_A5.1_[+5CCTCT]_F5.1_T5.1 (ssRNA)
RNA: UCUCUUUGUAUCCUCUUAUUAUCUCUU
B43: Ie_S1_P5E.1_K5.1_C5.1_H5.1_A5.1_[+5TTCCT]_F5.1_T5.1 (ssRNA)
RNA: UCUCUUUGUAUUUCCUUAUUAUCUCUU
B44: Ie_S1_P5E.1_K5.1_C5.1_H5.1_A5.1_[+5CCCTT]_F5.1_T5.1 (ssRNA)
RNA: UCUCUUUGUAUCCCUUUAUUAUCUCUU
B45: Ie_S1_P5E.1_K5.1_C5.1_H5.1_A5.1_[+6CCC]_F5.1_T5.1 (ssRNA)
RNA: UCUCUUUGUAUUCCCAUUAUCUCUU
B46: Ie_S1_P5E.1_K5.1_C5.1_H5.1_A5.1_[+6TTC]_F5.1_T5.1 (ssRNA)
RNA: UCUCUUUGUAUUUUCAUUAUCUCUU
B47: Ie_S1_P5E.1_K5.1_C5.1_H5.1_A5.1_[+6CCTC]_F5.1_T5.1 (ssRNA)
RNA: UCUCUUUGUAUUCCUCAUUAUCUCUU
B48: Ie_S1_P5E.1_K5.1_C5.1_H5.1_A5.1_[+6TTCC]_F5.1_T5.1 (ssRNA)
RNA: UCUCUUUGUAUUUUCCAUUAUCUCUU
B49: Ie_S1_P5E.1_K5.1_C5.1_H5.1_A5.1_[+6CCCT]_F5.1_T5.1 (ssRNA)
RNA: UCUCUUUGUAUUCCCUAUUAUCUCUU
B50: Ie_S1_P5E.1_K5.1_C5.1_H5.1_A5.1_[+6CTCTC]_F5.1_T5.1 (ssRNA)
RNA: UCUCUUUGUAUUCUCUCAUUAUCUCUU
B51: Ie_S1_P5E.1_K5.1_C5.1_H5.1_A5.1_[+6TCTCT]_F5.1_T5.1 (ssRNA)
RNA: UCUCUUUGUAUUUCUCUAUUAUCUCUU
B52: Ib_S2_P3E.1_K3.1_C3.1_H3.1_[G2C]_A3.1_F3.1_[A8T]_T3.1 (ssRNA)
RNA: B8 RNA with A28U, G29C, G35U
B53: Ie_S1_P5E.1_K5.1_C5.1_H5.1_A5.1_[+6CCTCT]_F5.1_T5.1 (ssRNA)
RNA: UCUCUUUGUAUUCCUCUAUUAUCUCUU
B54: Ie_S1_P5E.1_K5.1_C5.1_H5.1_A5.1_[+6TTCCT]_F5.1_T5.1 (ssRNA)
RNA: UCUCUUUGUAUUUUCCUAUUAUCUCUU
B55: Ie_S1_P5E.1_K5.1_C5.1_H5.1_A5.1_F5.1_[+8T]_T5.1 (ssRNA)
RNA: UCUCUUUGUAUUAUUUAUCUCUU
B56: Ie_S1_P5E.1_K5.1_C5.1_H5.1_A5.1_[+7CC]_F5.1_T5.1 (ssRNA)
RNA: UCUCUUUGUAUUACCUUAUCUCUU
B57: Ie_S1_P5E.1_K5.1_C5.1_H5.1_A5.1_[+7CT]_F5.1_T5.1 (ssRNA)
RNA: UCUCUUUGUAUUACUUUAUCUCUU
B58: Ie_S1_P5E.1_K5.1_C5.1_H5.1_A5.1_[+7TC]_F5.1_T5.1 (ssRNA)
RNA: UCUCUUUGUAUUAUCUUAUCUCUU
B59: Ie_S1_P5E.1_K5.1_C5.1_H5.1_A5.1_[+7TT]_F5.1_T5.1 (ssRNA)
RNA: UCUCUUUGUAUUAUUUUAUCUCUU
B60: Ie_S1_P5E.1_K5.1_C5.1_H5.1_A5.1_[+7CCC]_F5.1_T5.1 (ssRNA)
RNA: UCUCUUUGUAUUACCCUUAUCUCUU

Target: T1, PUF4 RNA-binding domain
Assay: Mg; RNA-MaP; 20 mM Na-HEPES pH 7.4, 30 mM KOAc, 0.75 mM MgCl2, 0.1% Tween-20, 5% glycerol, 0.1 mg/mL BSA, 2 mM DTT; 25 C; 0.0125-409.6 nM protein
Settings: tags: N-His6-TEV cleaved; C-SNAP kept, Cy3B-labelled; label: tethered on chip by stalled RNA polymerase

Row | Binder | Kd [nM]
1 | B1 | 8.58
2 | B2 | > 2300
3 | B3 | 110
4 | B4 | 32.9
5 | B5 | 41.9
6 | B6 | 1920
7 | B7 | 28.2
8 | B8 | > 2300
9 | B9 | > 2300
10 | B10 | 405
11 | B11 | 332
12 | B12 | 99.4
13 | B13 | 10.9
14 | B14 | 66.2
15 | B15 | 36.6
16 | B16 | 36.5
17 | B17 | 22.2
18 | B18 | 456
19 | B19 | 955
20 | B20 | 738

Row | Binder | Kd [nM]
21 | B21 | 126
22 | B22 | 1100
23 | B23 | 1410
24 | B24 | 85.1
25 | B25 | 397
26 | B26 | 139
27 | B27 | 884
28 | B28 | 6.7
29 | B29 | 11
30 | B30 | > 2300
31 | B31 | 7.13
32 | B32 | 4.31
33 | B33 | 4.32
34 | B34 | 13.1
35 | B35 | 35.4
36 | B36 | 48.5
37 | B37 | 42.3
38 | B38 | 6.57
39 | B39 | 36
40 | B40 | 29.4

Row | Binder | Kd [nM]
41 | B41 | > 2300
42 | B42 | 30.3
43 | B43 | 30.1
44 | B44 | 60.4
45 | B45 | 350
46 | B46 | 40.7
47 | B47 | 120
48 | B48 | 51.8
49 | B49 | 32.4
50 | B50 | 84.4
51 | B51 | 30.9
52 | B52 | 1310
53 | B53 | 66.2
54 | B54 | 26.7
55 | B55 | 8.84
56 | B56 | 76.7
57 | B57 | 37.3
58 | B58 | 15.7
59 | B59 | 15.6
60 | B60 | 209

— PMC9352680, “A comprehensive thermodynamic model for RNA binding by the Saccharomyces cerevisiae Pumilio protein PUF4”
